Measured values from the DeepSol protein solubility set.

assay: soluble on expression in E. coli; label from the status in PepcDB or PDB records

With “MGSDKIHHHHHHMTLSFVTRWRDELPETYTALSPTPLNNARLIWHNTELANTLSIPSSLFKNGAGVWGGEALLPGMSPLAQVYSGHQFGVWAGQLGDGRGILLGEQLLADGTTMDWHLKGAGLTPYSRMGDGRAVLRSTIRESLASEAMHYLGIPTTRALSIVTSDSPVYRETAEPGAMLMRVAPSHLRFGHFEHFYYRRESEKVRQLADFAIRHYWSHLADDEDKYRLWFSDVVARTASLIAQWQTVGFAHGVMNTDNMSLLGLTLDYGPFGFLDDYEPGFICNHSDHQGRYSFDNQPAVALWNLQRLAQTLSPFVAVDALNEALDSYQQVLLTHYGERMRQKLGFMTEQKEDNALLNELFSLMARERSDYTRTFRMLSLTEQHSAASPLRDEFIDRAAFDDWFARYRGRLQQDEVSDSERQQLMQSVNPALVLRNWLAQRAIEAAEKGDMTELHRLHEALRNPFSDRDDDYVSRPPDWGKRLEVSCSS” as the sequence, how does the “soluble on expression in E. coli” value read?
Its value is “not soluble”.

For “SLTVFQPLVPPDWKMNLREGSLYAQVAFSAAAGQGFEAGGHGVLKGGSAWMPDNQINGVDFVLPFRFSDGHWQLGIRRPVSLRIGEIVNQVTARNLTADLQGTWPWSEANPLQLSDVSVDLLGGKLTLLQLRMPQRDPALIRLQHISSSELTSAVKVKQFAMSGAVSGALPLWLENNQWIIHDGWLRNDGPMTLRLDKDTADALVADNVSAGAAINWLRYMEISRSWTQINLDNLGVLTLKASINGTSRVEGKSSTVHLNYAHEENIFDLWRSLRFGDNLQAWLEQNATL”, which “soluble on expression in E. coli” value is on record?
Its value is “not soluble”.

Which “soluble on expression in E. coli” value does the source give for “MLQALLDSKDFLALTLANPQTLGDEFSFTLGEHTRVNVWDTGVIVFEPAQPQGKDVILSCGVHGNETAPIELCNTLIKQLLQQKIIAKQRTLFLIGNPLAINNGTRIIDENMNRLFSGEHSNPPGLVNPERLRAKKLETYVDRFFKAAAAGRQRIHYDLHTAMRASKHEKFAIYPYRPGRAYSAEQIMFLAASGVDTVLFHHEPTTTFSYFSSEQYGADAFTIELGKVYPMGQNDMTRFIAAQEMFTRLITDKPLQLESFSTDKVNLYQVCRVINKHFDDFEFTFATDVENFRAFPKGFVLAREGGQEIKVEQEVESIVFPNAKVPIGNRTVICLIPSVAPDVRLEHHHHHH” here?
The value was “soluble”.

With “KVISPTYQASTQVLVHESDGEENSNLSDIQRNLQYSSTFQSIMKSTALMEEVKAELHLSESASSLKGKVVTSSENESEIINVAVQDHDPAKAAEIANTLVNKFEKEVDERMNVQGVHILSEAKASESPMIKPARLRNM” as the sequence, how does the “soluble on expression in E. coli” value read?
Its value is “not soluble”.

With “MKKRYSWEELARAMGIEPQRLENKEARELKKFVDEMTWPTHCNYCQGLDLTNPNPVHHPSYELTPACNHDCIFCYSNVAVKLGKAPKPGYYGWDNPKVITISQYGEPLLSPRIVEVNKMLRKRFPEARLDLQTNGSLLTRELWEKLDFDLVMISLNAADREKHRRIANADTFEQVVNALKIVGEDKSVRSVVRTVFMPGINDEDIPKIAELAASLGIDEMHLQPLTIHELNVERLKKAGLDFERAESIRELLKAAMEAKKYIDVRISGCILVQLKQMDPITLYSVRRVAREVVPLVKRSKLDILEHHHHHH” as the sequence, how does the “soluble on expression in E. coli” value read?
The value was “not soluble”.

With “MSVLGFDIGNLNCYIGVARQGGIEVITNDYSLHATPACVSFGPKDRSMGVAARQAVTTNIKNTVINFKHLIGRKFSDPVAQRFIPFIPCKVVKLPNDDIGVQVSYLGEPHTFTPEQVLAALLTKLRTIVESQLSDVKKVSDCVLAVPSYFTDVQRRAVLSAIQYAGLNSLRIVNETTAIALAYGIYKQDLPEEDAKSRNVVFLDIGHSSTQASLVAFNRGKLQMVNTSYDLESGGIWFDALIREHFRKEFKTKYGIDAATSPRPWLRLLDECERVKKQMSANQTPIPLNIECFMEDKDVTGKMQRQEFEDLAAPIFNRIKQVLINLFADGVSIKPEEIDEIEIVGGSSRIPMIREIVKDLFGKEPKTTMNQDEAVARGAAMQCAILSPTFRVREFAIKDTQPYRIRLSWNSTGENGGENDVFSPRDEVPFSKLVSLLRSGPFNVEAHYAQPNVVPHNQVHIGSWKVNGARPGADGGNQKVKVKVRVNPDGIFTIASATMYEPRIVEEVPAEAMEVDGDAKTEAPAEPLEPVKKTKLVPVDLEVIESIPVSYDVQKFHNLELQMQESDAREKAKADAKNSLEEYVYEMRDKVSDQYAEFITPAAADEFRSVLTSTEDWLYDEGEDAERDVYEKRLSELKAVGTPVVERYRESETRKPAFDSFDQSIMRVRKAYEDYANGGPTYAHLDSKEMEKVINAIEDKKKWLDEARHKQETRSKTDAPVVFTEEILQNKNVFENVVNPILNKKKPAAPAPPKKEEPQPAAGDQPQSQPGEMDVD” as the sequence, how does the “soluble on expression in E. coli” value read?
The value was “not soluble”.

With “MKVMLSLFKRESIKGITMKKSTLLNSELSYLVATLGHTDEITICDAGLPIPDEVTRIDLALTHGVPSFLETVRVILSESQIESVIVAQEFAQVSPVLHEALYRELKAEEQLCGKPIAIQYISHEAFKQRTLQSRAVVRTGECTPYANVIFQAGVVF” as the sequence, how does the “soluble on expression in E. coli” value read?
Its value is “not soluble”.

With “MGSDKIHHHHHHMLHLNLLQVFISVAENSSFTLAGSEMHRTQSAISMKIKRLEEILGVPVFERSGKSIELTKEGAIFLTHSRRILQLVDEAMSAVGAVRKSNVVRLGCVEDYAVRTIPKILVDFWVEHPDVHIEMGTGDSASLLDRLGDDFDVVLAEHPLNSGEGEVVCTDSLVWGASANHSPHLQEPIPVAFRSQGALERQWACSALNAAGRPWRLACLSAGIGTLQTAVDAGLAVGVFKASTLAGALNRLTPADNFPQLPDVEMALHVMNDGFSQPSIMQLVKKLRESLQRPQLAAAHE” as the sequence, how does the “soluble on expression in E. coli” value read?
The value was “not soluble”.

Which “soluble on expression in E. coli” value does the source give for “SGCGGSRADAIEPRYYESWTRETESTWLTYTDSDAPPSAAAPDSGPEAGGLHSGMLEDGLPSNGVPRSTAPGGIPNPEKKTNCETQCPNPQSLSSGPLTQKQNGLQTTEAKRDAKRMPAKEVTINVTDSIQQMDRSRRITKNCVN” here?
Its value is “soluble”.

With “MSAPLRVLVTGAAGQIGYSIVIRIADGTVFGKEQPVELVLLDVPQCSNILEGVVFELQDCALPTLFSVVAVTDEKSAFTGIDYAFLVGAMPRREGMERKDLLAANVKIFKSQGKALAEYAKPTTKVIVVGNPANTNAFIAAKYAAGKIPAKNFSAMTRLDHNRALAQLALKTGTTIGNVKNVIIWGNHSGTQFPDVTHATVNKNGTETDAYAAVGDNAFLQGPFIATVQKRGGVIIEKRKLSSAMSAAKAACDHIHDWHFGTKAGQFVSMAVPSDGSYGIPQGLIFSFPVTIEGGEWKIVQGLSFDDFAKGKIAATTKELEEERDDALKACDDANI” as the sequence, how does the “soluble on expression in E. coli” value read?
The value was “not soluble”.

With “MELAKKTGATVIGSAEMADYLSSYHGVENVHGMNIGGKANFDFGSVKFVQAFHSSSFTHENGIPVYLGMPMGIVFEVEGKTIYHTGDTGLFSDMSLIAKRHPVDVCFVPIGDNFTMGIDDASYAINEFIKPKISVPIHYDTFPLIEQDPQQFKDAVNVGDVQILKPGESVQFLEHHHHHH” as the sequence, how does the “soluble on expression in E. coli” value read?
The value was “not soluble”.

For “MTNLETYFKNSQPLNEYIDGMKTNQDTVLSIYQSFELPEDDSRIKKIKEMNYSKVLVITEDWCGDAMMNLPILKHISEALNLEVRVFHRDDDTKLIDQYLTNGKSRAIPIFVFLNDQFEQETVWGPRANEVQKFVTDVRADKLPSKDHPDYADLEKETHLVISNRYKTDASFWKAVYNSILNKLENK”, which “soluble on expression in E. coli” value is on record?
The value was “not soluble”.

With “MGSDKIHHHHHHMTEKEIVDYIKNNDIQKIKFAFADIDGVLRGKLIHTDKFLDGLKEGLGFCDVVFGWDSADAGYDNVSATGWHTGYPDKLAQIDLSTFRLIPWENNTPFFLADYKNNDQTALPICPRTLLKRIAQECSAMGYHAAFAQEFEWFNFRETQQSLVEKNFHDLTPLTNGMFGYSILRPSLEDAYYNDLFDLLGAFDIPLEGLHTETGPGVYECAYFHDEVVRAADKATLLKTAVKEIANKHGIIATFMAKISDKLPGCSGHIHQSLWNTGKTENLFYDPNQEHNMSDLFKHYVAGQLYCLPHIVPMLAPTVNSYKRLVEGAWAPTTLTWGFDNRTTALRVLNHSKKTARLEQRVSGSDTNPYLAIAASLASGLYGIKHKLSLDVPPTTGNGYANKSNGSIASNLMDATQLMKNSSIAKELFGEAFVQHFTATREWEWRQFSKHVSDWEMKRYMEII” as the sequence, how does the “soluble on expression in E. coli” value read?
The value was “not soluble”.

For “MTENTLDPAADLLERLGDKRFRTILADPPWQFQNRTGKMAPEHKRLNRYGTMSLEAIAGLPVERLTADTAHLYLWVPNALLLEGLKVMEAWGFTYKTNLVWHKIRKDGGPDGRGVGFYFRNVTELVLFGVRGKNARTLAAGRRQVNFLATRKREHSRKPDEMYGIIESCSPGPYLELFARGARDRWSVWGNEADENYYPRWNTYANHSQAEICPFEAAALEHHHHHH”, which “soluble on expression in E. coli” value is on record?
The value was “soluble”.

Which “soluble on expression in E. coli” value does the source give for “MDMMMDKQEIKREYIEQEGHFETKSRRRELHIEILSEQTKSDIRNSKLVVMN” here?
The value was “soluble”.

With “MGIIISLVAPTVSSTISSRLMIGPENNEKDAKNSDRTKYDNLAMLGRSPEQKEHVNPFEKAPVARPTRNTVDSQMMLGPPKKANDQSASDCSIYDNLVVPMSELGPTPGNKPSPNPIEGAPMIRPPQDTVSRAPDNSIYDTLQMTPEVDWSKKMTMKSMKKTGK” as the sequence, how does the “soluble on expression in E. coli” value read?
The value was “not soluble”.

For “MQVLRLMALPLFALSLSVSITGCDQKNDTLQGKQNNMTAFIKKIAASKESEETQRYVGNLNGIEIKLTYYYKGDIVLRQISEHKLLYKTLKANNKEEAQKMLSQVGEAYQGMPGLTERIDYYDSYATEYVDINFTQAKISDLCKLPGSSIDNCSAYYLSMIRSQKLLEESGYHRIN”, which “soluble on expression in E. coli” value is on record?
Its value is “not soluble”.

With “MNAVKIEKGVAQYIEHNLYYYFEYVRDIQRLKKDILFGRANYDENVGGGRGNLPSRPTERRTIELITHRRLERLEQIVHAIQTVYRSLSPEKQKAVQLKYWSGKSYTWEQVAREIGVSVRQLYRWRDQIIYDIAKLLGEVNSNS” as the sequence, how does the “soluble on expression in E. coli” value read?
The value was “not soluble”.

With “MGSDKIHHHHHHMIIVAGTPGAGKTSVMTHTIKQLLNKGNKPAVVKIDCLYTDDDTRYGKLKIPTLVGLSKDMCPDHFAIYNLEEMAEWAEKEGVDTLIIETAGLCHRCAPYTKNSLGICVIDATSGPNTPRKVGPFLTSADVVAITKGDIISQAEREVFRERVLEMNPKCTIYDVNGLSGQGCAEISEEIMEAKDIVDLENEELRHNAPLCVCTLCVGETKVAKKHHRGVLRRIDGFTKYVGE” as the sequence, how does the “soluble on expression in E. coli” value read?
Its value is “not soluble”.

Which “soluble on expression in E. coli” value does the source give for “MGSDKIHHHHHHLLLEQTNFRKEVNNIKIFNERNMNNLEYIIPECYADITNIYNNVIVMENIKGLTYNDVKDLDIEKKDIFGKLLMKFGLISILYTSAVHCDIHPGNLFFYINEDVKDKPKYQLGLIDFGIVSFPNRENQNFYYTFFKNIQIDKDFSKLEDVLRCILCEKDKFKNLDTIKKRLLKETIERNIIETDNKYDLDFFLKLSYTINVYGFTFTKEFNQICLSLQVVENLLKNLLLDIRKTQDEIIETFNNINKLIT” here?
Its value is “not soluble”.

Which “soluble on expression in E. coli” value does the source give for “MKLSPSVIALSVLLSSHTLANTAGQVETCQQKAQDIQRQIDEAHKHGNQNRINGLEKALDGVKNHCTDAGLAEKRQEAIAEKRKDVAERQQELSESRQKRDDAEKILKRERKLAEAEQELRAAESGASQLEHHHHHH” here?
The value was “soluble”.

Which “soluble on expression in E. coli” value does the source give for “MIKLKNVTKTYKMGEEIIYALKNVNLNIKEGEFVSIMGPSGSGKSTMLNIIGCLDKPTEGEVYIDNIKTNDLDDDELTKIRRDKIGFVFQQFNLIPLLTALENVELPLIFKYRGAMSGEERRKRALECLKMAELEERFANHKPNQLSGGQQQRVAIARALANNPPIILADEPTGALDSKTGEKIMQLLKKLNEEDGKTVVVVTHDINVARFGERIIYLKDGEVEREEKLRGFDDR” here?
Its value is “soluble”.

Which “soluble on expression in E. coli” value does the source give for “MHIIDSHCHLNFEGLKERLPEVLSNMEANGVGQALAISVSRESFSEVFAVAEAHEHIYCTIGVHPDSREAEEFSIAEMVEAAAHPKVVGIGETGLDYYWCKGDLSWQHKRFADHIEAANQTGLPVIVHTRDAAADTLAILKECKTNSGVIHCFSEDTAFARAAMDLGLYISFSGIVTFKNAPLVQEAAKYVPDDRILVETDAPFLAPVPKRGRQNEPAFVRHTAEHIAKLRNQTLEQVAAYTTENFYRLFKKVPDMRAVLEHHHHHH” here?
The value was “not soluble”.
